Reference: US20140072613A1, “Compositions and Methods for Treating Cutaneous Scarring” (priority 2012, published 2014)

Key:
Assay in all cases: biochemical
Type in all cases: biochemical
[1] = biological target: 266 human kinases (Homo sapiens, UniProt P12931, T341M); settings: Src(T341M)(h); 100 μM
Outline: (§1)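 Read-out by scintillation counting of radiolabelled, positively charged substrate bound to negatively charged filter; activity normalised to 100% control. Phosphate transferred from radiolabelled ATP.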

[2] = biological target: T1, 266 human kinases (Homo sapiens, UniProt P29322); settings: EphA8(h); 100 μM
T1 sequence (P29322 28-1005): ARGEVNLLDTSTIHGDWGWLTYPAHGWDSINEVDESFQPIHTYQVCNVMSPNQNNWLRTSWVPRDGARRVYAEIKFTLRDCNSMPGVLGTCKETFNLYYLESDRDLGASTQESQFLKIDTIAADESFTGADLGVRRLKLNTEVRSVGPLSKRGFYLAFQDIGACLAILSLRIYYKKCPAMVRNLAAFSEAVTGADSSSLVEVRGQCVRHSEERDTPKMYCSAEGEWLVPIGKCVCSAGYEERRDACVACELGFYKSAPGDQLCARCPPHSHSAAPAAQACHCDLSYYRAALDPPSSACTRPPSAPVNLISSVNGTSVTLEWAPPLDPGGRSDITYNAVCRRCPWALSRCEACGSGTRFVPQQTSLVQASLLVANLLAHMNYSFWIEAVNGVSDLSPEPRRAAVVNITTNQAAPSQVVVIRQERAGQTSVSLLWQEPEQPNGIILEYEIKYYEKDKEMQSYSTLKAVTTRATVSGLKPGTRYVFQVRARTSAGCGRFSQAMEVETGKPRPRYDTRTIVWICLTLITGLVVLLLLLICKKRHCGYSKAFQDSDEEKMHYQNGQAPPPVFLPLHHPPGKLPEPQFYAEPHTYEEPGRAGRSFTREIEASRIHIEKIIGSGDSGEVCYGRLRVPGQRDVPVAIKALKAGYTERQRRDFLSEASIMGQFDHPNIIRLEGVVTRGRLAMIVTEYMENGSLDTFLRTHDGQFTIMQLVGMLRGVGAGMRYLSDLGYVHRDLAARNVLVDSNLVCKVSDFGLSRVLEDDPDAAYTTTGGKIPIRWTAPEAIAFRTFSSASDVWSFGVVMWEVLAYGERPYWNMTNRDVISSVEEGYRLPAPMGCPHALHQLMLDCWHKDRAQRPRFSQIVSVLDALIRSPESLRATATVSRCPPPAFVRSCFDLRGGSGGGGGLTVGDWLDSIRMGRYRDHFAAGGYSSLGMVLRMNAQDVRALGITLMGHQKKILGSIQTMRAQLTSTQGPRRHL
Outline: as §1

[3] = biological target: 266 human kinases (Homo sapiens, UniProt Q06187); settings: BTK(h); 100 μM
Outline: as §1

[4] = biological target: 266 human kinases (Homo sapiens, UniProt Q13882); settings: BRK(h); 100 μM
Outline: as §1

[5] = biological target: T2, 266 human kinases (Homo sapiens, UniProt Q8N568); settings: DCAMKL2(h); 100 μM
T2 sequence (Q8N568 1-766): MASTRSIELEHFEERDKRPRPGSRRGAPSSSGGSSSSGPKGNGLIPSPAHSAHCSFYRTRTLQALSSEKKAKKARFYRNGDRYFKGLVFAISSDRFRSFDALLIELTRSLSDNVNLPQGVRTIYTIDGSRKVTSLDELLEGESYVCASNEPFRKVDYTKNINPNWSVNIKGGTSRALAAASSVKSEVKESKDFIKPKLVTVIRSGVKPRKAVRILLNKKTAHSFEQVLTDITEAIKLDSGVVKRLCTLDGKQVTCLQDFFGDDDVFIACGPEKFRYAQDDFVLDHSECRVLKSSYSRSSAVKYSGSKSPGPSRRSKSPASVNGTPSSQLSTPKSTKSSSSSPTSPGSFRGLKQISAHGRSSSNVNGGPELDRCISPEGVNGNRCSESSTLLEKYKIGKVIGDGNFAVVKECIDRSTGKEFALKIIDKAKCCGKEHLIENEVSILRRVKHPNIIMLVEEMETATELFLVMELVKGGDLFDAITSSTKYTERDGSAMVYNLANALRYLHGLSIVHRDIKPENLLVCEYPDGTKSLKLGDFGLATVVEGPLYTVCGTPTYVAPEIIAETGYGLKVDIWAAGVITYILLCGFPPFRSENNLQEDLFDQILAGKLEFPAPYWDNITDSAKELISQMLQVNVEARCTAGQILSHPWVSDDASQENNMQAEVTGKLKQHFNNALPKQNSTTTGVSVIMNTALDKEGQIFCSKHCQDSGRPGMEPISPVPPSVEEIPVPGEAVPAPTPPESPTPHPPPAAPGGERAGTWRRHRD
Outline: as §1

[6] = biological target: T3, 266 human kinases (Homo sapiens, UniProt Q9NWZ3); settings: IRAK4(h); 100 μM
T3 sequence (Q9NWZ3 1-460): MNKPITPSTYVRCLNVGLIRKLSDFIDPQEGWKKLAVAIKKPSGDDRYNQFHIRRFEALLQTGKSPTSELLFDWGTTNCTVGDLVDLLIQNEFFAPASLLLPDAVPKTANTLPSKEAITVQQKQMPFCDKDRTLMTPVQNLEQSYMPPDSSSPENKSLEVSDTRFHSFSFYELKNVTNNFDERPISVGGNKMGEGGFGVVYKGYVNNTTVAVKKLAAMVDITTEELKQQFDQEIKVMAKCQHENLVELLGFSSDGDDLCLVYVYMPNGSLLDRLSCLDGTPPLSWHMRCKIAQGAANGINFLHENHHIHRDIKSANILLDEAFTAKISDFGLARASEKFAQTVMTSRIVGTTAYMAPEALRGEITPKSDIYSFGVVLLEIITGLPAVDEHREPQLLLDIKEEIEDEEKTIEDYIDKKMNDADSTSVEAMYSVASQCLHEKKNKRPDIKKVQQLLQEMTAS
Outline: as §1

[7] = biological target: 266 human kinases (Homo sapiens, UniProt Q9UIK4); settings: DAPK2(h); 100 μM
Outline: as §1

Sequence of 266 human kinases (Homo sapiens, UniProt Q13882) (Q13882 whole entry): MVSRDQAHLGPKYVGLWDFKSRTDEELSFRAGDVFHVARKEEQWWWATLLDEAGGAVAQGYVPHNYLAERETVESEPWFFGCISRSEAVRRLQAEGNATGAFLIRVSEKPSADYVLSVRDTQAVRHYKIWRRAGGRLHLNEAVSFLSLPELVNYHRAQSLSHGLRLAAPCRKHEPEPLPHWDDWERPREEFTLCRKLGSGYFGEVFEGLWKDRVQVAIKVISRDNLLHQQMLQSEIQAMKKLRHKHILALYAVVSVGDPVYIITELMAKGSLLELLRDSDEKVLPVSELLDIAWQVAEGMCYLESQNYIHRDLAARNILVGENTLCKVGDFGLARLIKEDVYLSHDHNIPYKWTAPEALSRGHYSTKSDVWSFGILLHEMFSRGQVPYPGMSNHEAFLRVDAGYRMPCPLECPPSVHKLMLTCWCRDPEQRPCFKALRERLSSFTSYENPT
Sequence of 266 human kinases (Homo sapiens, UniProt Q9UIK4) (Q9UIK4 whole entry): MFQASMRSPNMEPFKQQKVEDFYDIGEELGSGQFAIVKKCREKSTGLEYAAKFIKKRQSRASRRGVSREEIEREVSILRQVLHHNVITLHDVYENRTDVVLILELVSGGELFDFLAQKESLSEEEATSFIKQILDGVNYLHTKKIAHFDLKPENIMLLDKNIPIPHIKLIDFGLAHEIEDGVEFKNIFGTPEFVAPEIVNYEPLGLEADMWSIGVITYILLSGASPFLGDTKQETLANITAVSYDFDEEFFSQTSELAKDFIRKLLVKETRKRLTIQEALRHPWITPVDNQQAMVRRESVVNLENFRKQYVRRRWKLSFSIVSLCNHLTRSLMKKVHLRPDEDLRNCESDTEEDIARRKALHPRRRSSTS
Sequence of 266 human kinases (Homo sapiens, UniProt Q06187) (Q06187 whole entry): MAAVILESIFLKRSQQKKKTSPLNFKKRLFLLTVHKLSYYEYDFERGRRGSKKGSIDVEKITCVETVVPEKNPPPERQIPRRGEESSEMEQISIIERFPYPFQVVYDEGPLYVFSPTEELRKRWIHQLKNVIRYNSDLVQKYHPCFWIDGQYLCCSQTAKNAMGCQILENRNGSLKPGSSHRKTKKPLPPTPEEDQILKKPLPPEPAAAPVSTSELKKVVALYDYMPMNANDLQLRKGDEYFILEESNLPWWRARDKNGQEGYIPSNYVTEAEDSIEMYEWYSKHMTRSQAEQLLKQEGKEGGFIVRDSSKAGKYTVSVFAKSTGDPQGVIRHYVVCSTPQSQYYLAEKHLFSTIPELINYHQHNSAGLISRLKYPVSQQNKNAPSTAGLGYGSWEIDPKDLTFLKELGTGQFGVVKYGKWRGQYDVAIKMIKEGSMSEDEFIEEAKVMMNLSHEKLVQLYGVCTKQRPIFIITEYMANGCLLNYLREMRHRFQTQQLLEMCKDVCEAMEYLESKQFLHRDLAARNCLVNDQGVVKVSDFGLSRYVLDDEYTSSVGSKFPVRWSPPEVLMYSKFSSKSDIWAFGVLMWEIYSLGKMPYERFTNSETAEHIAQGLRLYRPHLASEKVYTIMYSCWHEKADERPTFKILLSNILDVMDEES

Sequence | % activity [1] [%] | % activity [2] [%] | % activity [3] [%] | % activity [4] [%] | % activity [5] [%] | % activity [6] [%] | % activity [7] [%]
HRRIKAWLKKIKALARQLGVAA (mammal) [MMI-0500] | 59 | 337 | 18 | 41 | 56 | 3 | 3
YARAAARQARAKALNRQLGVA (mammal) [MMI-0200] | 56 | 133 | 100 | 127 | 131 | 110 | 92
